This is an account of results in patent US20230212289A1.

This test deals with CD3 (antigen of the binding affinity table of Example 1) (UniProt P07766). Put plainly: kinetic fit with two-state parameters; method not given.

Where a chain is given by its changes, count along the chain named.

OKT3-chimeric (antibody): the Kd came out at 0.622 nM, the ka2 worked out at 0.0105 s⁻¹, the kd2 worked out at 0.00194 s⁻¹ and the koff amounted to 0.138 s⁻¹. Further, the association rate constant (kon) is 3.44e+07 M⁻¹ s⁻¹.

B1: H4L1 (antibody, V domains shown)
VH: QVQLQQSGAEVKKPGASVKMSCKASGYTFTRYTMHWVRQAPGQGLEWIGYINPSRGYTNYNQKFKDRVTLTTDTSISTAYMELSRLRSDDTAVYYCARYYDDHYSLDYWGQGTTLTVSS
VL: DIQMTQSPSSLSASVGDRVTMTCSASSSVSYMNWYQQKPGKAPKRLIYDTSKLASGVPSRFSGSGSGTDFTLTISSLQPEDFATYYCQQWSSNPFTFGSGTKLEINR
On to B1, for which the Kd is 7.49 nM, the ka2 turned out to be 0.0282 s⁻¹, the kd2 was 0.0023 s⁻¹ and the dissociation rate constant (koff) stood at 0.176 s⁻¹. Moreover, the kon was 1.77e+06 M⁻¹ s⁻¹.

B2: H2L4 (antibody, V domains shown)
VH: B1 VH with K12A, M20V, I48M, V68A, T72R, T74K
VL: B1 VL with M4L, M21I, R45L, L77M
In the case of B2, the Kd amounted to 0.642 nM, the ka2 was determined as 0.0234 s⁻¹, the kd2 worked out at 0.000671 s⁻¹ and the koff was determined as 0.0814 s⁻¹. The molecule also gave an on-rate (kon) of 3.54e+06 M⁻¹ s⁻¹.

B3: H4L4 (antibody, V domains shown)
VH: B1 VH
VL: B1 VL with M4L, M21I, R45L, L77M
B3: the equilibrium dissociation constant (Kd) was determined as 13.9 nM, the ka2 is 0.0212 s⁻¹, the kd2 was 0.0023 s⁻¹ and the koff was 0.248 s⁻¹. This molecule also showed a kon of 1.75e+06 M⁻¹ s⁻¹.

B4: H3L6 (antibody, V domains shown)
VH: B1 VH with Q5V, V68A, L70M, T74K
VL: B1 VL with M21I, R45L, L46W, F70Y
As to B4, the dissociation constant (Kd) was determined as 8.84 nM, the ka2 stood at 0.00491 s⁻¹, the kd2 is 0.00243 s⁻¹ and the koff came to 0.0814 s⁻¹. In addition, the kon amounted to 3.05e+06 M⁻¹ s⁻¹.

B5: H4L5 (antibody, V domains shown)
VH: B1 VH
VL: B1 VL with M21I, L46W
B5 yielded a Kd of 9.96 nM, a ka2 of 0.0041 s⁻¹, a kd2 of 0.000744 s⁻¹ and a koff of 0.141 s⁻¹. The same molecule gave an on-rate constant (kon) of 2.17e+06 M⁻¹ s⁻¹.

B6: H2L6 (antibody, V domains shown)
VH: B1 VH with K12A, M20V, I48M, V68A, T72R, T74K
VL: B1 VL with M21I, R45L, L46W, F70Y
Turning to B6, the Kd came to 5.68 nM, the ka2 was 0.0101 s⁻¹, the kd2 is 0.00581 s⁻¹ and the off-rate constant (koff) is 0.0638 s⁻¹. Further, the on-rate (kon) came out at 4.1e+06 M⁻¹ s⁻¹.

B7: H3L1 (antibody, V domains shown)
VH: B1 VH with Q5V, V68A, L70M, T74K
VL: B1 VL
Consider B7, for which the dissociation constant (Kd) worked out at 1.16 nM, the ka2 was 0.0229 s⁻¹, the kd2 was determined as 0.000831 s⁻¹ and the off-rate constant (koff) stood at 0.155 s⁻¹. Besides, the kon was found to be 4.67e+06 M⁻¹ s⁻¹.

B8: H2L1 (antibody, V domains shown)
VH: B1 VH with K12A, M20V, I48M, V68A, T72R, T74K
VL: B1 VL
B8 had a Kd of 0.808 nM, a ka2 of 0.026 s⁻¹, a kd2 of 0.000779 s⁻¹ and a koff of 0.0979 s⁻¹. The on-rate constant (kon) was 3.52e+06 M⁻¹ s⁻¹.

B9: H2L3 (antibody, V domains shown)
VH: B1 VH with K12A, M20V, I48M, V68A, T72R, T74K
VL: B1 VL with M4L, M21I, R45L, F70Y
The molecule B9 had a Kd of 0.619 nM, a ka2 of 0.0228 s⁻¹, a kd2 of 0.000719 s⁻¹ and a koff of 0.13 s⁻¹. Also, the kon is 6.42e+06 M⁻¹ s⁻¹.

B10: H2L2 (antibody, V domains shown)
VH: B1 VH with K12A, M20V, I48M, V68A, T72R, T74K
VL: B1 VL with R45L, L77M
Turning to B10, the Kd is 0.892 nM, the ka2 was 0.0268 s⁻¹, the kd2 was 0.000814 s⁻¹ and the off-rate constant (koff) came to 0.0986 s⁻¹. The molecule also came in with a kon of 3.26e+06 M⁻¹ s⁻¹.

B11: H4L2 (antibody, V domains shown)
VH: B1 VH
VL: B1 VL with R45L, L77M
B11: the equilibrium dissociation constant (Kd) was 15.3 nM, the ka2 was 0.026 s⁻¹, the kd2 came to 0.00294 s⁻¹ and the koff worked out at 0.217 s⁻¹. Also, the kon came out at 1.44e+06 M⁻¹ s⁻¹.

B12: H3L5 (antibody, V domains shown)
VH: B1 VH with Q5V, V68A, L70M, T74K
VL: B1 VL with M21I, L46W
B12 had a dissociation constant (Kd) of 7.6 nM, a ka2 of 0.00709 s⁻¹, a kd2 of 0.00496 s⁻¹ and an off-rate (koff) of 0.0647 s⁻¹. The molecule further yielded an on-rate constant (kon) of 3.51e+06 M⁻¹ s⁻¹.

B13: H3L4 (antibody, V domains shown)
VH: B1 VH with Q5V, V68A, L70M, T74K
VL: B1 VL with M4L, M21I, R45L, L77M
Consider B13, for which the Kd was 1.33 nM, the ka2 is 0.0213 s⁻¹, the kd2 turned out to be 0.000744 s⁻¹ and the koff was 0.119 s⁻¹. For the same molecule, the kon was determined as 3.03e+06 M⁻¹ s⁻¹.

B14: H2L5 (antibody, V domains shown)
VH: B1 VH with K12A, M20V, I48M, V68A, T72R, T74K
VL: B1 VL with M21I, L46W
With B14, the Kd was determined as 2.55 nM, the ka2 came out at 0.0127 s⁻¹, the kd2 amounted to 0.00369 s⁻¹ and the off-rate (koff) is 0.0567 s⁻¹. Besides, the kon is 5.02e+06 M⁻¹ s⁻¹.

B15: H3L3 (antibody, V domains shown)
VH: B1 VH with Q5V, V68A, L70M, T74K
VL: B1 VL with M4L, M21I, R45L, F70Y
The molecule B15 showed a Kd of 1.38 nM, a ka2 of 0.0191 s⁻¹, a kd2 of 0.000815 s⁻¹ and an off-rate constant (koff) of 0.402 s⁻¹. For the same molecule, the kon came out at 1.19e+07 M⁻¹ s⁻¹.

B16: H3L2 (antibody, V domains shown)
VH: B1 VH with Q5V, V68A, L70M, T74K
VL: B1 VL with R45L, L77M
For the molecule B16, the dissociation constant Kd stood at 1.75 nM, the ka2 stood at 0.0234 s⁻¹, the kd2 worked out at 0.000939 s⁻¹ and the koff was determined as 0.139 s⁻¹. In addition, the on-rate constant (kon) turned out to be 3.06e+06 M⁻¹ s⁻¹.

B17: H4L6 (antibody, V domains shown)
VH: B1 VH
VL: B1 VL with M21I, R45L, L46W, F70Y
B17: the Kd was 12.4 nM, the ka2 is 0.00534 s⁻¹, the kd2 turned out to be 0.000594 s⁻¹ and the koff came out at 0.251 s⁻¹. Further, the kon stood at 2.02e+06 M⁻¹ s⁻¹.

B18: H4L3 (antibody, V domains shown)
VH: B1 VH
VL: B1 VL with M4L, M21I, R45L, F70Y
B18 gave a Kd of 14.7 nM, a ka2 of 0.0205 s⁻¹, a kd2 of 0.00238 s⁻¹ and a koff of 0.264 s⁻¹. Moreover, the kon amounted to 1.88e+06 M⁻¹ s⁻¹.
